# From patent EP4692122A1, “HUMANIZED ANTIBODIES TARGETING EPHA10” (priority 2023, dated 2024)
# B1: 1-1 (ADC) (conjugate)
# VH: QVTLKESGPTLVKPTQTLTLTCTFSGFSLSTSGMGVGWIRQPPGKALEWLAHIWWDDVKRYNPALKSRLTITKDTSKNQVVLTMTNMDPVDTATYYCARTSFPAGVDYWGQGTLVTVSS
# VL: DVVMTQSPLSLPVTLGQPASISCRSSQSLQNSNGNTCLNWFQQRPGQSPRRLIYRVSNRFSGVPDRFSGSGSGTDFTLKISRVEAEDVGVYYCLQVTHVPFTFGQGTKLEIKR
# modifications: non-natural residues
# Legend:
# [1] = target: T1, EphA10 fused with human Fc (Homo sapiens, UniProt Q5JZY3); experiment: ELISA analysis of binding activity to EphA10; conditions: ELISA (FIG. 11, FIG. 20)
# T1 construct: a vector for expressing an extra cellular domain (ECD) of EphA10 or a FNIII domain of the ECD was produced; made in house; host or cells: Expi293F
# T1 sequence (Q5JZY3 34-565 limits assumed): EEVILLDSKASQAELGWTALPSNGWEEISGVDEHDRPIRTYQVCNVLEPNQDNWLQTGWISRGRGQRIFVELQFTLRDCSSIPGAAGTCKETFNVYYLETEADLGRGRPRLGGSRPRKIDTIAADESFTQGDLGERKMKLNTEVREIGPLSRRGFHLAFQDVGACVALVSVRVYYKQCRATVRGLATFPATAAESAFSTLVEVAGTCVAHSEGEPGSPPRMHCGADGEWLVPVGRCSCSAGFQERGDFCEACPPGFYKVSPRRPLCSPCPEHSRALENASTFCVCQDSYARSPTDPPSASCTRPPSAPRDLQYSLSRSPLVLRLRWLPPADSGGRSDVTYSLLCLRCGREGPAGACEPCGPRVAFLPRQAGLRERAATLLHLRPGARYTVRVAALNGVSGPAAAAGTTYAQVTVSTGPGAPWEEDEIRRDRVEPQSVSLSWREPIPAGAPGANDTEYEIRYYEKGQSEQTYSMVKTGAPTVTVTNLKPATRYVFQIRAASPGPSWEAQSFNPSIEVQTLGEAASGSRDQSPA
# Method: The binding activity to EphA10 of the five EphA10-binding humanized antibodies purified in Example 3 was analyzed by ELISA. Specifically, 4 µg/ml of EphA10 fused with human Fc was diluted with a 0.05 M Na2CO3 (pH 9.6) solution and immobilized in 50 µl of a Flat Bottom Polystyrene High Bind 96-well microplate (costar) at 4°C for 16 hours, and then blocked with 100 µl of 4% skim milk (GenomicBase) at room temperature for 2 hours. […] 50 µl of a 1-Step Ultra TMB-ELISA substrate solution (Thermo Fisher Scientific) was added to develop color, and then added with 50 µl each of 2 M H2SO4 to terminate the reaction, and then analyzed using an Epoch microplate spectrophotometer (BioTek). […]
# As the sequencing result, it was confirmed that a free cysteine amino acid that was not involved in disulfide bonds existed in the CDR region of the light chain of the EphA10-specific humanized antibody (FIG. 10). […] To verify this, the binding activities of EphA10-specific humanized antibody 1-1 and EphA10-targeting ADC antibody 1-1 (ADC) after ADC production were analyzed and compared by ELISA.
# In Example 8 above, the binding activity to EphA10 of antibodies 1-1-A, 1-1-S, 1-2-A, and 1-2-S, in which the free cysteines present in the light chains of two types of EphA10-specific humanized antibodies 1-1 and 1-2 were substituted with serines and alanines, was analyzed by ELISA. […]
# [2] = test system: hEphA10 overexpressing cell line; experiment: Cancer cell killing by cell survival analysis using ATP measurement (CellTiter-Glo); assay type: cell-based, human; conditions: stated as a consequence of the lost EphA10 binding of the ADC (FIG. 11)
# Method: To confirm the efficacy of ADC in vitro, a cancer cell killing effect was confirmed through cell survival analysis using ATP measurement. Specifically, MDA-MB-231 naive cells (control group), a mock cell line (negative control group), and a hEphA10 overexpressing cell line were dispensed at 2 × 10^4 per well in a 96-well white plate (SPL), respectively, and the following day, the ADC produced in Example 6 was diluted in RPMI (Capricorn) for each concentration, treated by 100 µl per well, and then incubated at 37°C for 48 hours. The ADC-treated plate was incubated at room temperature outside the incubator for 5 minutes, 50 µl of a CellTiter-Glo solution was added to each well, and then the plate was shaken at 500 rpm for 2 minutes. After reacting for 10 minutes on a room temperature bench in a light-blocked state, ATP was measured using a Synergy HTX multimode reader (Biotek).
# To verify the effect of two types of EphA10-targeting ADCs A7-MMAE and 2W_MMAE produced using A7 and 2W antibodies, cell viability analysis of cancer cells was performed by measuring ATP as in Example 7-1 above.
molecule,measurement,setting,value
B1,EphA10 binding activity of the ADC compared with the antibody before ADC production,[1],greatly reduced
same,in vitro ADC efficacy,[2],greatly reduced
